Here are results for two substances from publication PMC5003418.

What is called stoichiometry N is a count of units in the complex or per binding partner.

Assay [1] has as its target HIV-1 integrase K264A/K266A, recombinant, 6xHis-tagged (HIV-1). Briefly: SEC. On the technique in general: Size exclusion chromatography separates by hydrodynamic size, large species first.
Assay [2] addresses HIV-1 integrase R269A/K273A, recombinant, 6xHis-tagged (HIV-1). Briefly: SEC.

On to “HIV-1 integrase K264A/K266A, recombinant, 6xHis-tagged (enzyme)”, for which the stoichiometry N in assay [1] was found to be 4.
“HIV-1 integrase R269A/K273A, recombinant, 6xHis-tagged (enzyme)”: in assay [2], the stoichiometry N was 4.
